Test results taken from the nanobody polyreactivity screen of Harvey et al. (2022).

Assay: yeast display, Sf9 membrane polyspecificity reagent, FACS + sequencing; frameworks hold sequencing errors
Procedure, shortened: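 Sorting gates, low and high (top ~1%), were placed on anti-HA fluorescence to track expression and on streptavidin fluorescence to track reagent binding. A clone's polyreactivity label is taken from the gate it came out of. The reagent was 10% biotinylated, detergent-solubilized Sf9 membrane, applied for 1 hour at 4 °C to galactose-induced yeast display cells.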

| Sequence | polyreactivity (PSR sort gate) |
| --- | --- |
| QVQLVESGGGLVQAGGSLRLSCAASGRTFFYNTMGWYRQAPGKERELVAAITSSGGRTSYADSVKGRFTISRDNAKNTVYLQMNSLKPEDTAVYYCAALYSYYSLYDDYDYWGQGTQVTVSS | high polyreactivity |
| QVQLVESGGGLVQAGGSLRLSCAASGRTFFYYAMGWYRPAPGKERELVAGSTNYADSVKGRFTISRDNAKNTVYLQMNSLKPEETAVYYCNADPDDYWGQGTQVTVSS | low polyreactivity |
| QVQLVESGGGLVQAGGSLRLSCAASGRTFFYYTMGWYRQAPGKEREFVASISWSGASTYYADSVKGRFTISRDNAKNTVYLQMNSLKPEDSAVYYCAAPVTGGAYGYDYWGQGTQVTVSS | high polyreactivity |
| QVQLVESGGGLVQAGGSLRLSCAASGRTFGANAMGWYRQAPGKERELVAAISSSDDSTYYADSVKGRFTISRDNAKKTDDLQMNSLKPEDTAVYYCAVAVGYTDSPYSYDYWGQGTQVTVSS | low polyreactivity |
| QVQLVESGGGLVQAGGSLRLSCAASGRTFGANVMGWYRQAPGKERELVARISNGGRTSYADSVKARFTISRDNAKNPVYLQMNSLKPEDTAVYYCAALVVNVFPRYGYWGQGTQVTVSS | high polyreactivity |
| QVQLVESGGGLVQAGGSLRLSCAASGRTFGAYAMGWYRQAPGKERELVAAIDSGGITYYADSVKGRFTISRDNAKNTVYLQMNSLKPEDTAVYYCAADHRVVTFYEGDYWGQGTQVTVSS | low polyreactivity |
| QVQLVESGGGLVQAGGSLRLSCAASGRTFGAYAMGWYRQAPGKERELVASISRSGGTTYYADSVKGRFTISRDTAKNTVYLQMNSLKPEDTAVYYCAAQYVRYGHYYWGQATQVTVSS | high polyreactivity |
| QVQLVESGGGLVQAGGSLRLSCAASGRTFGDNAMGWYRQARGKERELVAAISSGDSTYYADSVKGRFTISRDNAKNSVYLQMNSLKPEDTAVYYCAARWRYTFYVSYYYWGQGTQVTVSS | high polyreactivity |
| QVQLVESGGGLVQAGGSLRLSCAASGRTFGEYAMGWYRQAPGKERELVAAITGGDSTNYADSVKGRFTISRDNAKNTVYFQMNSLKPEDTAVYYCAAYGVKVLWTLTTYDYWGQGTQVTVSS | low polyreactivity |
| QVQLVESGGGLVQAGGSLRLSCAASGRTFGFNVMGWYRQAPGKERELVAAISWSGGSTYYADSVKGRFTISRDNAKNTVYLQMNSLKPEDTAVYYCNNRYVHRYGYWGQGTQVTVSS | low polyreactivity |
| QVQLVESGGGLVQAGGSLRLSCAASGRTFGGNAMGWDRQAPGKERELLAAITGRGGSTYYADSLKGRFTISRDNAKNTVYLQMNSLKPEDTAVYYCNADGSAYIEDGYDYWGQGTQVTVSS | low polyreactivity |
| QVQLVESGGGLVQAGGSLRLSCAASGRTFGGNAMGWYRQAPGKERELVAAISGRGGSTYYADSVKGRFTISRDNAKNTVYLQMNSLKPEDTAVYYCAARSYLTPEYYYWGQGTQVTVSS | high polyreactivity |
| QVQLVESGGGLVQAGGSLRLSCAASGRTFGGYAMGWSRQAPGKERELVAAISWSGGRTYYADSVKGRFTISRDNAKNTVYLQMNSLKPEDTAVYYCAATSGRAFKYDYWGQGTQVTVSS | high polyreactivity |
| QVQLVESGGGLVQAGGSLRLSCAASGRTFGGYAMGWYRQAPGKERELVAAIRWSGGSTYYADSVKGRFTISRDNAKNTVYLQMNSLKPEDTAVYNCAARSHTSADGGRYYYWGQGTQVTVSS | high polyreactivity |
| QVQLVESGGGLVQAGGSLRLSCAASGRTFGGYAMGWYRQAPGKERELVAAISSSGTRTYYAESVKGRFTISRDNAKNTVYLQMNSLKPEDTAVYYCAAYRVIVWYAMDYWGQGTQVTVSS | high polyreactivity |
| QVQLVESGGGLVQAGGSLRLSCAASGRTFGGYAMGWYRQAPGKERELVASITRSGGGTYYADSVKGRFTISRDNAKNTVYLQMNSLKPEDTAVYYCAVYFANPYSVYGLGVYSTLNYWGQGTQVTVSS | low polyreactivity |
| QVQLVESGGGLVQAGGSLRLSCAASGRTFGGYVMGWYRQAPGKESELVATITDSGGSTHYADSVKGRFTISRDNAKNTVYLQMNSLKPEDTAVYYCARRRSYRYPSEYNYWGQGTQVTVSS | high polyreactivity |
| QVQLVESGGGLVQAGGSLRLSCAASGRTFGINAMGWYRQAPGKERELVARIRKTVGSTYYADSVKGRFTISRDNAKNTVYLQMNSLKPEDTAVYYCAADLRYGYLYPYDSWGQGTQVTVSS | high polyreactivity |
| QVQLVESGGGLVQAGGSLRLSCAASGRTFGIYAMGWYRQAPGKERELVAAISSDASTSYADSVKGRFTISRDNAKNTVYLQMNSLKPEDTAVYYCAADPGPYYDWGYDYWGQGTQVTVSS | low polyreactivity |
| QVQLVESGGGLVQAGGSLRLSCAASGRTFGIYAMGWYRQAPGKERELVAAITGRGGSTHYADSVKGRFTISRDNAKNTVYLQMNSLKPEDTAVYYCNARWWVIRPYQRHDYWGQGTQVTVSS | low polyreactivity |
| QVQLVESGGGLVQAGGSLRLSCAASGRTFGIYAMGWYRQATGKERELVAGITWTGGSTYYADSVKGRFTISRDNAKNTVYLQMNSLKPEDTAVYYCAADFYVLQFYGLDYGYWGQGTQVTVSS | low polyreactivity |
| QVQLVESGGGLVQAGGSLRLSCAASGRTFGKNAMGWYRQAPGKEREFVAAITSRGGSTYYADSVKGRFTISRDNAKNTVYLQMNSLKPEDTAVYYCNREYNRPSQRTEHYYWGQGTQVTVSS | low polyreactivity |

| Sequence | polyreactivity (PSR sort gate) |
| --- | --- |
| QVQLVESGGGLVQAGGSLRLSCAASGRTFGKNAMGWYRQAPGKERELVAAISWSGGRTYYADSVKGRFTISRDNAKNTVYLQMNSLKPEDTAVYYCAAVRRRRNSYGYWGQGTQVNVSS | high polyreactivity |
| QVQLVESGGGLVQAGGSLRLSCAASGRTFGKYAMGWYRQAPGKDRELVATISRSGGSTYYAVSVKGRFTISRDNAKNTVYLQMNSLKPEDTAVYYCNAVTSRYIWPPVVDRYHYWGQGTQVTVSS | high polyreactivity |
| QVQLVESGGGLVQAGGSLRLSCAASGRTFGLYAMGWYRQAPGKERELVATITTSDIMTYYADSVKGRFTISRDNAKNTVYLQMNRLKPEDTAVYYCATGGYDDFSSRPANDYWGQGTQVTVSS | low polyreactivity |
| QVQLVESGGGLVQAGGSLRLSCAASGRTFGNNAMGWYRQAPGKERELVASISSSGGTNYADSVKGRFTISRDNAKNTVYLLMNSLIPEDTAVYYCAKRKFTARQRFWGQGTQVTVSS | high polyreactivity |
| QVQLVESGGGLVQAGGSLRLSCAASGRTFGNYVMGWYRQAPGKERELVAAISRSGGSTYYADSVKGRFTISRDNAKNTVYLQMNSLKPVDTAVYYCNTVTTYEVEYWGQGTQVNVSS | high polyreactivity |
| QVQLVESGGGLVQAGGSLRLSCAASGRTFGPYAMGWYRQAPGKERELVAAITCSGGSTYYADSVKGRFTISRYNAKNTVYLQMNSLKPEDTAVYYCAPYHLSKLDYWGQGTQVTVSS | low polyreactivity |
| QVQLVESGGGLVQAGGSLRLSCAASGRTFGPYAMGWYRQAPGKEREMVAAIRFSGGSTYYADSVKGRFTISRDNAKNTVYLQMNSLKPEDTAVYYCNARLGSSKGRVEKYGSWGQGTQVTVSS | high polyreactivity |
| QVQLVESGGGLVQAGGSLRLSCAASGRTFGPYVMGGDRQAPGKERELVAGITSGGSTNYADSVKGRFTISRDNAKNTVYRQMNSLKPEDTAVYYCNADYLIYFGLYEYWGHGTQVTVSS | low polyreactivity |
| QVQLVESGGGLVQAGGSLRLSCAASGRTFGRNAMGWYRQAPGKERELVAAISDRGASTYYADSVKGRFTISRDNAKNTVYLQMNSLKPEDTAVYYCAAVFWVDILPGDYWGQGTQVTVSS | low polyreactivity |
| QVQLVESGGGLVQAGGSLRLSCAASGRTFGRNDMGWYRQAPGKERELLATITSGGSTNYADSVKGRFTISRDNAKNTVYLQMISLKPEDTAVYYCAAEFSPSRWAYSEGALRYNYWGQGTQVTVSS | low polyreactivity |
| QVQLVESGGGLVQAGGSLRLSCAASGRTFGRNVMGWYRQAPGKERELVAAISRSGGSTYYADSVKGRFTISRDNAKNTVYLQMNSLKPEDTAVYYCAAKYYRDRDWGQGTQVTVSS | high polyreactivity |
| QVQLVESGGGLVQAGGSLRLSCAASGRTFGRYALGWYRQAPGKERELVAAIRSGGSTYYADSVKGRFTISRDNAKNTVYLQMNSLKPEDTAVYYCAADIARHLTGFAYYRLDYWGQGTQVTVSS | low polyreactivity |
| QVQLVESGGGLVQAGGSLRLSCAASGRTFGRYAMGWSRQAPGKERELVAAIRYTGGSTYADSVKGRFTISRDNAKNTVYLQMNSLKPEDTAVYYCAVLFYNNFGYWGQGTQVTVSS | low polyreactivity |
| QVQLVESGGGLVQAGGSLRLSCAASGRTFGRYAMGWYRPAPGKERELVAAIRWTGGGTYYADSVKGRFTISRDNAKNTVYLQMNSLKPEDTAVYYCAADDYYYSVYRYEYWGEGTQVTVSS | high polyreactivity |
| QVQLVESGGGLVQAGGSLRLSCAASGRTFGRYAMGWYRQAPGKERELVAAINSGSASTYYADSVKGRFTISRDNAKNTVYLEMNSLKPEDPAVYYCAKRVQQSTWYGYGIGYEYWGQGTQVTVSS | high polyreactivity |
| QVQLVESGGGLVQAGGSLRLSCAASGRTFGRYAMGWYRQAPGKERELVAAISSSGGRTNYADSVKGRFTISRDNAKNTVYLQMNSLKPEDTAVYYCAAAGQRPYEKGDYWGQGTQVTVSS | low polyreactivity |
| QVQLVESGGGLVQAGGSLRLSCAASGRTFGRYAMGWYRQAPGKERELVAAISWRGSSTSYADSVKGRFTISRDNAKNTVYLQMNSLKPEDTSVYYCNAKRSGGYGGYDYWGQGTQVTVSS | high polyreactivity |
| QVQLVESGGGLVQAGGSLRLSCAASGRTFGRYAMGWYRQAPGKERELVAAITRGGGSTYYADSVKGRFTISRDNAKNTVYLQMNSLKPEDTAVYYCAARNFRSPYGYDYWGQGTQVTVSS | high polyreactivity |
| QVQLVESGGGLVQAGGSLRLSCAASGRTFGRYAMGWYRQAPGKERELVATISSRGGNTYYADSVKGRFTISRDNAKNTVFLQMNSLKPEDTAVYYCAADVYSSDYDYWGQGTQVNVSS | high polyreactivity |
| QVQLVESGGGLVQAGGSLRLSCAASGRTFGRYAMGWYRQAPGKERELVATISSRGGNTYYADSVKGRFTISRDNAKNTVYLQMNSLKPEDTAVYYCAAQTYKWYDWGQGTQVTVSS | high polyreactivity |
| QVQLVESGGGLVQAGGSLRLSCAASGRTFGRYAMGWYRQAPGKERELVATITRGDSTYYADSVKGRFTISRDNAKNKVYLQMNSLKPEDTAVYYCAADWHRWYLDYDYWGQGTQVTVSS | low polyreactivity |
